Changes are numbered by the printed parent chain. In names and notes the source's numbering stands.
Target: the molecule itself
Assay: thioflavin T fluorescence (fibrillation assay); self-association of the peptide into cross-beta fibrils; 40 µM peptide, 13 µM ThT, 0.5 mM DTT, 40 mM HEPES-KOH pH 7.4, 150 mM KCl or NaCl (methods), room temperature (RGG-PLD^mut-NLS also at 37 °C), at least 3 h

B1: PLD^mut-NLS (hnRNP A1 aa 234–272, D262V) (peptide)
peptide: GGGYGGSGDGYNGFGNDGSNFGGGGSYNVFGNYNNQSSN
notes: hnRNP A1, human, residues 234-272 with D262V; Synthesised on an amide resin, so the C-terminus may be amidated; source: synthetic peptide (Fmoc solid phase, RP-HPLC purified)
binding result: binds

B2: RGG-PLD^mut-NLS (hnRNP A1 aa 218–272, D262V) (peptide)
peptide: RGGNFSGRGGFGGSRGGGGYGGSGDGYNGFGNDGSNFGGGGSYNVFGNYNNQSSN
notes: hnRNP A1, human, residues 218-272 with D262V; Synthesised on an amide resin, so the C-terminus may be amidated; source: synthetic peptide (Fmoc solid phase, RP-HPLC purified)
reduction of the ThT signal relative to PLD^mut-NLS: 30 ± 10%

B3: RGG-PLD^wt-NLS (hnRNP A1 aa 218–272, wild type) (peptide)
peptide: B2 peptide with V45D
notes: hnRNP A1, human, residues 218-272, wild type; Synthesised on an amide resin, so the C-terminus may be amidated; source: synthetic peptide (Fmoc solid phase, RP-HPLC purified)
fold lower fibrillation (ThT) than RGG-PLD^mut-NLS: ~2 fold
